Results on one molecule are retold here after publication PMC6484134 (The Journal of Biological Chemistry, 2019).

Data set [1] concerns the molecule itself. The data set can be described thus: […]; room temperature; […]; 20 mM HEPES, 150 mM NaCl, 2 mM DTT; […].
Data set [2] concerns the target T1, Cul3N (human Cul3 N-terminal domain, residues 1–388, I342R L346D) (human, UniProt Q13618 1-388, I342R | L346D).
T1 construct: also called Cul3–NTD
In words: ITC; 25 °C; 20 mM HEPES, 200 mM NaCl, 1 mM DTT; […] (70–[…]) […]. To be noted: both partners purified. Background: In ITC the heat of successive injections is recorded.

For data set [3], the target named is T2, Cul3NΔ22 (human Cul3 N-terminal domain, residues 23–388, I342R L346D) (human, UniProt Q13618 23-388, I342R | L346D).
T2 construct: also called Cul3–NTD; Cu3NΔ22
T2 sequence (Q13618 23-388 I342R/L346D): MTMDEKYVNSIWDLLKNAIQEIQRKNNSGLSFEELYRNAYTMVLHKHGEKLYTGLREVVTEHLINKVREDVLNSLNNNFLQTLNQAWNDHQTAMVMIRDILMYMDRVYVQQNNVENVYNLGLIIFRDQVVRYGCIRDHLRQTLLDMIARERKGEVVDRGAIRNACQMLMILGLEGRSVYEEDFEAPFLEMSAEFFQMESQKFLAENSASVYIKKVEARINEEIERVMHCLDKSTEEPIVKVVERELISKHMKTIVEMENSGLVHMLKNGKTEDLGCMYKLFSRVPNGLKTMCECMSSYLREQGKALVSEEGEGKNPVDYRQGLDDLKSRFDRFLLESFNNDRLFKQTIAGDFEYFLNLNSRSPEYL
The data set is described as above. To be noted: both partners purified.

T1 sequence (Q13618 1-388 I342R/L346D): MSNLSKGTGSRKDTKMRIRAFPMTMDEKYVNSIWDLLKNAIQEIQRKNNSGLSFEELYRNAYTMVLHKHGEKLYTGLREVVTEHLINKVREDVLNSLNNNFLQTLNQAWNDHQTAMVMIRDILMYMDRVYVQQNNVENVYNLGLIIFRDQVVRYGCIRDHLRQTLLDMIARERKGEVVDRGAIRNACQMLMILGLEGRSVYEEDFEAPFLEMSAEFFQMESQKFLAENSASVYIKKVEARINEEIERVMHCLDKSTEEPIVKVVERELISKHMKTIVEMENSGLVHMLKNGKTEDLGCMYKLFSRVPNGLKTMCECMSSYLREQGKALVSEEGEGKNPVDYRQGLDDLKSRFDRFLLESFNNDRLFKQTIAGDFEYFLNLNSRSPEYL

B1: A55BB (A55 BTB-BACK domain, residues 1–250), wild type (domain or fragment)
chain: MNNSSELIAVINGFRNSGRFCDISIVINDERINAHKLILSGASEYFSILFSNNFIDSNEYEVNLSHLDYQSVNDLIDYIYGIPLSLTNDNVKYILSTADFLQIGSAITECENYILKNLCSKNCIDFYIYADKYNNKKIESASFNTILQNILRLINDENFKYLTEESMIKILSDDMLNIKNEDFAPLILIKWLESTQQSCTVELLRCLRISLLSPQVIKSLYSHQLVSSIYECITFLNNIAFLDESFPRYH
For B1, the “stoichiometry N” value in data set [1] is 2. Further, the Kd in data set [2] was < 1 nM; in data set [3], 5.3 nM. Also, the values for the dH in data set [2] and in data set [3] were -17.7 kcal/mol and -9.9 kcal/mol, respectively.

The term stoichiometry N denotes a count of units in the complex or per binding partner. As usually defined, the Kd is the concentration at which binding is half-saturated. A high value points to lower affinity.
